Measured values taken from the nanobody polyreactivity screen of Harvey et al. (2022).

Test: yeast display, Sf9 membrane polyspecificity reagent, FACS + sequencing; frameworks hold sequencing errors
In short: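 Synthetic nanobody libraries on Saccharomyces cerevisiae BJ5465 were galactose-induced for 36–48 hours, stained 1 hour at 4 °C with 10% biotinylated, detergent-solubilized Sf9 membrane reagent and enriched on streptavidin microbeads. FACS then separated cells into low and high (top ~1%) gates by anti-HA (expression) and streptavidin (reagent binding) fluorescence. Genes were colony-PCR amplified, MiSeq 2 × 250 sequenced and CDR-length filtered. A clone's polyreactivity label is that of its gate of origin.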

| Sequence | polyreactivity (PSR sort gate) |
| --- | --- |
| QVQLVESGGGLVQAGGSLRLSCAASGLTFPIYAMGWYRQAPGKEREFVAVITTSGGSTYYSDSVKGRFTISRDNAKNTVYLQMNSLKPEDTAVYYCNARRIRHYYWGQGTQVTVSS | high polyreactivity |
| QVQLVESGGGLVQAGGSLRLSCAASGLTFPLYAMGWYRPAPGKEREFVAAITVSGVSTSYADSVKGRFTISRDNAKNTVYLQMNSLKPEDTAVYYCAADYYIWTYWDVYYWGQGTQVTVSS | high polyreactivity |
| QVQLVESGGGLVQAGGSLRLSCAASGLTFPLYAMGWYRQAPGKEREFVAAITVSGVSTSYADSVKGRFTISRDNAKNTVYLQMNSLKPEDTAVYYCAADYYIWTYWDVYYWGQGTQVTVSS | high polyreactivity |
| QVQLVESGGGLVQAGGSLRLSCAASGLTFPQYAMGWYRQAPGKERELVAAISKTGGSTYYADSVKGRFTISRDNAKNTVYLQMNSLKPEDTAVYYCAAVESGDRGQRNNYWGQGTQVTVSS | high polyreactivity |
| QVQLVESGGGLVQAGGSLRLSCAASGLTFPTNAMGRYRQAHGKESQFVAAITSRGGTTYYADSVTGRFPISRDNAKNTVYLQMNSLKPEDTAVYYCAALSVTIDQSYRYGYWGQGTQVTVSS | low polyreactivity |
| QVQLVESGGGLVQAGGSLRLSCAASGLTFPYYDMGWYRQAPGKERELVATITISGRTNYADSVKGRFTISRDNAKNTVYLQMNSLKPEDTAVYYCNARYRGRVYDRFGYWGQGTQVTVSS | high polyreactivity |
| QVQLVESGGGLVQAGGSLRLSCAASGLTFQLYAMGWYRQAPGKERELVAAISGSGGRTYYADSVKGRFTISRDNGKNTVYLLMNRLKPEDTAVYYCAARPGSGRSYTSDYWGQGTQVTVSS | high polyreactivity |
| QVQLVESGGGLVQAGGSLRLSCAASGLTFQNNAMGWYRQAPGKERELVAAISDGGSTNYADSVKGRFTISRDNAKNTVYLQMNSLKPEDTAVYYCAAVYTSASYGSWGQGTQVTVSS | low polyreactivity |
| QVQLVESGGGLVQAGGSLRLSCAASGLTFQSYAMGWYRQAPGKERELVAAISRRSGSTYYADSVKGRFTISRDNAKNTVYLQMNSLKPEDTAVYYCTTRRGERGYWGQGTQVTVSS | high polyreactivity |
| QVQLVESGGGLVQAGGSLRLSCAASGLTFQYKTMGRYRQAPGKEREFVAAITISGGTTYYADSVKGRFTISRDNAKTTVYLQMNSLKPEDTAVHYCAADFNSTERGTNMDYWGQGTQVTVSS | low polyreactivity |
| QVQLVESGGGLVQAGGSLRLSCAASGLTFQYYAMGWYRQAPGKDRELVAAISTSGGSTYYADSVKGRFTISRDYAKNTVYLQMNSLKPEDTAVYYCAARRGSQYWGQGTQVTVSS | high polyreactivity |
| QVQLVESGGGLVQAGGSLRLSCAASGLTFRDNAMGWYRQAPGKERELVAAISTNGGSTYYADSVKGRFTISRDNAKNTVYLQMNSLKPEDTAVYYCAKSFLTQYPQVDSDYWGQGTQVTVSS | low polyreactivity |
| QVQLVESGGGLVQAGGSLRLSCAASGLTFRFYAMGWYRQAPGKERELVAVISGRGTSTYYADSVKGRFTISRDNAKNTVYLLMNSLKPEDTAVYYCAARYVAYAYVGNDYWGQGTQLTVSS | high polyreactivity |
| QVQLVESGGGLVQAGGSLRLSCAASGLTFRLNAMGWYRHAPGKERELVAAITRGGRTNYADSVKGRFTISRDNAKNTVYLQMNSLKPEDTAVYYCAARYVERHTDYYYWGQGTQVTVSS | low polyreactivity |
| QVQLVESGGGLVQAGGSLRLSCAASGLTFRLNAMGWYRQAPGKERELVAAITAIGDRTYYADSVKGRFTISRDNAKNTVYLQMNSLKPEDTAVYYCNVTPRRAQVRIGNYWGQGTQVTVSS | high polyreactivity |
| QVQLVESGGGLVQAGGSLRLSCAASGLTFRRYAMGWYRQAPGKVRELVAGISRGGSTYYADSVKGRFTISRDNAKNTVYLQMNSLKPEDTAVYYCAAYNRGTYPVQPVPYDMDYWGQGTQVTVSS | low polyreactivity |
| QVQLVESGGGLVQAGGSLRLSCAASGLTFRVYAMGWYRQAPGKERELVAAITGGGGSTYADSVKGRFTISRDNAKNTVYLQMNSLKPEDTAVYYCAAASPWDRDDYWGQGTQVTVSS | low polyreactivity |
